Drawing on paper PMC1079850 (2005), this text covers Kd for 1 molecule.

The target in this assay is Tsr (Escherichia coli, UniProt P02942).
Sequence of Tsr (P02942 whole entry): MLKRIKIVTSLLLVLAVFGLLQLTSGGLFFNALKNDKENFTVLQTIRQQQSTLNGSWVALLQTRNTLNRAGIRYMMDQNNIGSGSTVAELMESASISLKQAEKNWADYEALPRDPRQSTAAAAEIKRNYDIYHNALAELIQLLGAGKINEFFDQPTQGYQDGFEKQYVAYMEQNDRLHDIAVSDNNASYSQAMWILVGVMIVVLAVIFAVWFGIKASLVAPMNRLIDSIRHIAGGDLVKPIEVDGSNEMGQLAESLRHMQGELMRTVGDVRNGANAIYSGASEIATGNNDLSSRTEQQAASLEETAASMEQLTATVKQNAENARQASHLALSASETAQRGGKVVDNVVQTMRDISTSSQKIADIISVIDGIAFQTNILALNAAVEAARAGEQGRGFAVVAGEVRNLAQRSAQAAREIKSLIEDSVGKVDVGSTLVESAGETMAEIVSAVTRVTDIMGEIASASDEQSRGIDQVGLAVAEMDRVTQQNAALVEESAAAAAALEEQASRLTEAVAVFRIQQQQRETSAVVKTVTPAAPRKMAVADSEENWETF

B1: CheW (protein)
chain: MTGMTNVTKLASEPSGQEFLVFTLGDEEYGIDILKVQEIRGYDQVTRIANTPAFIKGVTNLRGVIVPIVDLRIKFSQVDVDYNDNTVVIVLNLGQRVVGIVVDGVSDVLSLTAEQIRPAPEFAVTLSTEYLTGLGALGDRMLILVNIEKLLNSEEMALLDSAASEVA
For B1, the Kd (as a rule, the equilibrium constant for the complex coming apart) was around 10 µM.
